According to PMC8888459:

Biological target: NIA–Isu1 complex with C. thermophilum Isu1 (S. cerevisiae | E. coli (endogenous in the expression host) | C. thermophilum) (UniProt P25374)
Assay: pull-down; competition: Yfh1^GST (2.5 μM) with NIA (5 μM) and Isu1Ct (7.5 μM), then Yah1 WT (increasing concentrations, 50 μM) or Yah1(DD/KK) (50 μM) added; glutathione resin; densitometry, amount without Yah1 set as 100%; buffer PD

Chain of NIA–Isu1 complex with C. thermophilum Isu1 (S. cerevisiae | E. coli (endogenous in the expression host) | C. thermophilum) (P25374 whole entry, looked up, one chain of several): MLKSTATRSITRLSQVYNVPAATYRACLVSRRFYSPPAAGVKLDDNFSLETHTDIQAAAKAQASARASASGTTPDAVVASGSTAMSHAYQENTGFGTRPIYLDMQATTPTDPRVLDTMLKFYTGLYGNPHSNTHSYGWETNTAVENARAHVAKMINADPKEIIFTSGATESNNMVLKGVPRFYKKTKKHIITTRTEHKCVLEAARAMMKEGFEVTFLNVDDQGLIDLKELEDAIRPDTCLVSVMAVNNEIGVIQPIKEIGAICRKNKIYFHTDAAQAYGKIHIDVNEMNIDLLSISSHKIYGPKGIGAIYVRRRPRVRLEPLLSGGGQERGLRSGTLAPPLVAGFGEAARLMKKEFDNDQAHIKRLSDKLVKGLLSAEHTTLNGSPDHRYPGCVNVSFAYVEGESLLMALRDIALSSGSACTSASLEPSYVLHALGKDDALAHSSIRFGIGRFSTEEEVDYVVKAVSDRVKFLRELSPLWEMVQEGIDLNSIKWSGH

percent of the control left pulled down with Yfh1^GST at 75 μM Yah1: 35%
B1: Yah1 (untagged, holo) (natural protein)
chain: IAAHLLRTSPSLLTRTTTTTRFLPFSTSSFLNHGHLKKPKPGEELKITFILKDGSQKTYEVCEGETILDIAQGHNLDMEGACGGSCACSTCHVIVDPDYYDALPEPEDDENDMLDLAYGLTETSRLGCQIKMSKDIDGIRVALPQMTRNVNNNDFS
